± gives the standard deviation of the averaged measurements.
How the values were obtained:
Saccharomyces cerevisiae [1] = assay: protein stability index of tFT-peptide fusion (C-terminal peptide) (PSI (0-1 scale)); higher = more stable (slower turnover); conditions: genetic background: wild type; temperature: 30 C
Saccharomyces cerevisiae [2] = assay: as above
Protocol: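 MPS profiling in S. cerevisiae of the tFT-X12 degron library: putative degron peptides plus stable controls, 12 aa, fused to the C-terminus of a sfGFP-mCherry timer. Cells are FACS-sorted into 8 mCherry/sfGFP bins and deep-sequenced. PSI runs from 0 (unstable) to 1 (stable). Backgrounds are wild type, das1Δ and doa10Δ at 30 °C, and wild type, das1Δ, cdc34-1 and cdc53-1 at 37 °C; 2-3 technical replicates each.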

[3] = genetic background: cdc34-1, temperature: 37 C
[4] = genetic background: cdc53-1, temperature: 37 C
[5] = genetic background: das1 deletion, temperature: 30 C
[6] = genetic background: das1 deletion, temperature: 37 C
[7] = genetic background: doa10 deletion, temperature: 30 C
[8] = genetic background: wild type, temperature: 30 C
[9] = genetic background: wild type, temperature: 37 C
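Further: PSI is a weighted mean of sequencing reads over stability bins, variants kept only with over 10 reads, mCherry proximal and sfGFP distal, peptide attached via GGGS linker.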

| Sequence | protein stability index (Saccharomyces cerevisiae [1]) | protein stability index (Saccharomyces cerevisiae [2]; [3]) | protein stability index (Saccharomyces cerevisiae [2]; [4]) | protein stability index (Saccharomyces cerevisiae [2]; [5]) | protein stability index (Saccharomyces cerevisiae [2]; [6]) | protein stability index (Saccharomyces cerevisiae [2]; [7]) | protein stability index (Saccharomyces cerevisiae [2]; [8]) | protein stability index (Saccharomyces cerevisiae [2]; [9]) |
| --- | --- | --- | --- | --- | --- | --- | --- | --- |
| GGSHVWKFYRNF | 0.4225 ± 0.0038 | 0.702 ± 0.09 | 0.7673 ± 0.0011 | 0.662 ± 0.031 | 0.767 ± 0.034 | 0.224 ± 0.0086 | 0.285 ± 0.027 | 0.5523 ± 0.0027 |
| GGVFYVFFVFVG | 0.195 ± 0.0076 | 0.19 ± 0.016 | 0.39 ± 0.016 | 0.246 ± 0.024 | 0.425 ± 0.013 | 0.128 ± 0.0049 | 0.153 ± 0.023 | 0.258 ± 0.013 |
| GGVVAACRGGIG | 0.346 ± 0.04 | 0.319 ± 0.011 | 0.3862 ± 0.0037 | 0.351 ± 0.017 | 0.394 ± 0.0076 | 0.361 ± 0.022 | 0.348 ± 0.01 | 0.374 ± 0.0091 |
| GGVWSAFAVWVC | 0.133 ± 0.0023 | 0.188 ± 0.0039 | 0.338 ± 0.027 | 0.288 ± 0.025 | 0.446 ± 0.0074 | 0.0761 ± 0.0025 | 0.0784 ± 0.013 | 0.0546 ± 0.014 |
| GGWGSSLGVWVG | 0.253 ± 0.011 | 0.663 ± 0.026 | 0.7542 ± 0.0024 | 0.644 ± 0.018 | 0.7674 ± 0.0045 | 0.178 ± 0.017 | 0.217 ± 0.015 | 0.4022 ± 0.0038 |
| GIANHAMVIVVL | 0.404 ± 0.04 | 0.444 ± 0.011 | 0.469 ± 0.0052 | 0.322 ± 0.037 | 0.508 ± 0.0078 | 0.278 ± 0.0066 | 0.312 ± 0.017 | 0.468 ± 0.033 |
| GIPVRRLLFLVA | 0.292 ± 0.051 | 0.419 ± 0.0098 | 0.478 ± 0.013 | 0.335 ± 0.033 | 0.5019 ± 0.0023 | 0.145 ± 0.0062 | 0.17 ± 0.024 | 0.311 ± 0.021 |
| GKWVWSSFVWFG | 0.19 ± 0.0062 | 0.457 ± 0.033 | 0.541 ± 0.011 | 0.509 ± 0.023 | 0.674 ± 0.03 | 0.0899 ± 0.0064 | 0.0965 ± 0.021 | 0.0945 ± 0.0042 |
| GLFCCFLCLSVF | 0.261 ± 0.015 | 0.241 ± 0.0047 | 0.297 ± 0.018 | 0.241 ± 0.041 | 0.343 ± 0.015 | 0.2 ± 0.004 | 0.204 ± 0.026 | 0.275 ± 0.017 |
| GLFVGCWVFLVL | 0.387 ± 0.061 | 0.344 ± 0.0095 | 0.445 ± 0.0049 | 0.307 ± 0.044 | 0.525 ± 0.012 | 0.294 ± 0.0069 | 0.297 ± 0.037 | 0.486 ± 0.015 |
| GLIICRRCLWCC | 0.267 ± 0.05 | 0.49 ± 0.01 | 0.527 ± 0.029 | 0.36 ± 0.031 | 0.5909 ± 0.00095 | 0.1721 ± 0.00088 | 0.182 ± 0.021 | 0.255 ± 0.01 |
| GLLSLSGLRWFC | 0.276 ± 0.11 | 0.672 ± 0.051 | 0.74727 ± 0.00044 | 0.659 ± 0.021 | 0.763 ± 0.022 | 0.163 ± 0.021 | 0.19 ± 0.035 | 0.462 ± 0.012 |
| GLSWRLVWVVII | 0.103 ± 0.011 | 0.0421 ± 0.0072 | 0.0599 ± 0.011 | 0.132 ± 0.02 | 0.189 ± 0.0048 | 0.0916 ± 0.006 | 0.0531 ± 0.0056 | 0.0493 ± 0.0093 |
| GMNGLFFIAMLG | 0.362 ± 0.02 | 0.53 ± 0.033 | 0.645 ± 0.041 | 0.514 ± 0.018 | 0.642 ± 0.035 | 0.195 ± 0.016 | 0.195 ± 0.029 | 0.398 ± 0.015 |
| GRLVPVILLKLV | 0.099045 ± 4e-05 | 0.3011 ± 0.0019 | 0.471 ± 0.015 | 0.441 ± 0.031 | 0.5625 ± 0.00087 | 0.0719 ± 0.018 | 0.0651 ± 0.015 | 0.0817 ± 0.0024 |
| GRRPVVDFLPCL | 0.736 ± 0.0074 | 0.692 ± 0.045 | 0.7222 ± 0.004 | 0.697 ± 0.029 | 0.745 ± 0.009 | 0.7146 ± 0.0027 | 0.719 ± 0.037 | 0.742 ± 0.023 |
| GSITFFKMVQSG | 0.469 ± 0.023 | 0.656 ± 0.021 | 0.748 ± 0.012 | 0.622 ± 0.021 | 0.744 ± 0.012 | 0.376 ± 0.014 | 0.417 ± 0.028 | 0.687 ± 0.011 |
| GSLPERPLRYVC | 0.162 ± 0.01 | 0.516 ± 0.035 | 0.6878 ± 0.004 | 0.651 ± 0.017 | 0.7239 ± 0.0021 | 0.1 ± 0.028 | 0.0973 ± 0.013 | 0.148 ± 0.016 |
| GSRRYYFTWVYQ | 0.1178 ± 0.00012 | 0.454 ± 0.038 | 0.697 ± 0.013 | 0.655 ± 0.019 | 0.722 ± 0.019 | 0.0716 ± 0.016 | 0.0885 ± 0.015 | 0.0876 ± 0.024 |

Reference: the supplement of paper PMC10724198
